{
  "source": "paper PMC4989188",
  "about": "“Identification and characterization of chromosomal relBE toxin-antitoxin locus in Streptomyces cattleya DSM46488” (Scientific Reports, 2016)",
  "molecular_target": "T1, RelE2sca-His6 toxin (SCATT_39270) of Streptomyces cattleya DSM 46488 (Streptomyces cattleya DSM 46488, UniProt F8K3H9 1-87)",
  "T1 construct": "also called toxin RelE2sca; not shown: His6, N-terminal, kept",
  "T1 sequence (looked up)": "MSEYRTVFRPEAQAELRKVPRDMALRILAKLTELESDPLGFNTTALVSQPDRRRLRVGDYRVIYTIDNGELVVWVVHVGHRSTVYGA",
  "assay": "SEC",
  "details": "both partners purified",
  "data": [
    {"binder": "RelB2sca antitoxin (SCATT_39280) of Streptomyces cattleya DSM 46488 (natural protein, UniProt G8WSR4 1-89, looked up, Untagged in the co-purification; Copies 2 are those in the 2:2 complex with RelE2sca-His6; In the functional row the protein was expressed from pBAD-relB2sca-relEeco in E. coli MGJ5987; also called antitoxin RelB2sca; RelBsca; source: E. coli BL21(DE3), co-expressed with RelE2sca-His6 from pACYC-relB2sca-relE2scahis, co-purified on NTA-Ni resin) MTQPLPMESIRDVRAHLAEVVERADRDDVPTVITRRGKQVAAVVSIEVLRKYQEWEEREINRIIDERMANPTPGVPIEDIMRETLARSE", "values": [
      {"measurement": "stoichiometry N", "value": "1 RelB2sca per RelE2sca-His6 (printed as 2:2)"}
    ]}
  ]
}
